Experimental data published in patent publication US20240033343A1.

Tests used:
W2GSG (SARS-CoV-2; HIV) = W2GSG (SARS-CoV-2; HIV) (UniProt P0DTC2)
W1GSG (SARS-CoV-2) = W1GSG (SARS-CoV-2) (UniProt P0DTC2)
M1GGSGG (SARS-CoV-2) = M1GGSGG (SARS-CoV-2) (UniProt P0DTC2)
[1] = target: W2GGSGG (SARS-CoV-2; HIV) (UniProt P0DTC2)
S1GSG (SARS-CoV-2) = S1GSG (SARS-CoV-2) (UniProt P0DTC2)
S2GGSGG (SARS-CoV-2) = S2GGSGG (SARS-CoV-2) (UniProt P0DTC2)
S2GSG (SARS-CoV-2) = S2GSG (SARS-CoV-2) (UniProt P0DTC2)
RAA (SARS-CoV-2; HIV) = RAA (SARS-CoV-2; HIV) (UniProt P0DTC2)
AAAA (SARS-CoV-2; HIV) = AAAA (SARS-CoV-2; HIV) (UniProt P0DTC2)
W1GGSG (SARS-CoV-2; HIV) = W1GGSG (SARS-CoV-2; HIV) (UniProt P0DTC2)
S1GGSGG (SARS-CoV-2) = S1GGSGG (SARS-CoV-2) (UniProt P0DTC2)
[2] = target: SARS-CoV-2 Sclamp (SARS-CoV-2) (UniProt P0DTC2)

**Q.** For CR3022 (antibody), which Kd (W2GSG (SARS-CoV-2; HIV)) is on record?
**A.** 2.06 nM

**Q.** And the Kd (W1GSG (SARS-CoV-2))?
**A.** 1.08 nM

**Q.** What about the Kd (M1GGSGG (SARS-CoV-2)) of the same substance?
**A.** 0.57 nM

**Q.** What about the Kd [1] of the same substance?
**A.** 1.09 nM

**Q.** What about the Kd (S1GSG (SARS-CoV-2)) of the same substance?
**A.** 1.02 nM

**Q.** What about the Kd (S2GGSGG (SARS-CoV-2)) of the same substance?
**A.** 1.18 nM

**Q.** What about the Kd (S2GSG (SARS-CoV-2)) of the same substance?
**A.** 1.03 nM

**Q.** What about the Kd (RAA (SARS-CoV-2; HIV)) of the same substance?
**A.** 0.91 nM

**Q.** What about the Kd (AAAA (SARS-CoV-2; HIV)) of the same substance?
**A.** 0.74 nM

**Q.** What about the Kd (W1GGSG (SARS-CoV-2; HIV)) of the same substance?
**A.** 0.89 nM

**Q.** And the Kd (S1GGSGG (SARS-CoV-2))?
**A.** 0.69 nM

**Q.** What about the Kd [2] of the same substance?
**A.** 0.58 nM
